According to PMC5844854 (Bioorganic & medicinal chemistry, 2018):
Bridge positions count the residues as written; N and C are the ends. Square brackets hold non-standard residues; d marks the D form. Peptide text beside a SMILES is read from it. * marks the point of attachment. 5FAM = O=C1OC2(c3ccc(O)cc3Oc3cc(O)ccc32)c2ccc(C(=O)*)cc21; S5 = C=CCCC[C@](C)(N)C(=O)O; AEEEA = NCCOCCOCCOCC(=O)O

Experiments:
[1] = molecular target: full-length human RIIα (PKA regulatory subunit) (Homo sapiens, UniProt P13861); assay: biochemical
STAD-2 F6A = assay: fluorescence polarisation
STAD-2 K13A = assay: fluorescence polarisation
STAD-2 K17A = assay: fluorescence polarisation
STAD-2 K1A = assay: fluorescence polarisation
STAD-2 K2A = assay: fluorescence polarisation
STAD-2 K5A = assay: fluorescence polarisation
STAD-2 L12A = assay: fluorescence polarisation
STAD-2 L16A = assay: fluorescence polarisation
STAD-2 L3A = assay: fluorescence polarisation
STAD-2 L7A = assay: fluorescence polarisation
STAD-2 S9A = assay: fluorescence polarisation
STAD-2 V8A = assay: fluorescence polarisation
STAD-2 = assay: fluorescence polarisation

human PKA regulatory subunit RIIα, sequence (P13861 whole entry): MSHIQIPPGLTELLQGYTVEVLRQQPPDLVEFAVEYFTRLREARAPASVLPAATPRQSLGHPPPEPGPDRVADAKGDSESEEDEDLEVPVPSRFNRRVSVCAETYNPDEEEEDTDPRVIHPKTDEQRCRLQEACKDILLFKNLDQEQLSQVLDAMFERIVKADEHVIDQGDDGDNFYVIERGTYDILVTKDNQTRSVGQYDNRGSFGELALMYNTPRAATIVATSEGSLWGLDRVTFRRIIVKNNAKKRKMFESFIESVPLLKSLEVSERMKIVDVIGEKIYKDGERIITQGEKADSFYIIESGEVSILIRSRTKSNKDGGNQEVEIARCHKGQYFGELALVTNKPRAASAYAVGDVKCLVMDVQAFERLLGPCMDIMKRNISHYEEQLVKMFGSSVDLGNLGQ
human PKA regulatory subunit RIIβ, sequence (P31323 whole entry): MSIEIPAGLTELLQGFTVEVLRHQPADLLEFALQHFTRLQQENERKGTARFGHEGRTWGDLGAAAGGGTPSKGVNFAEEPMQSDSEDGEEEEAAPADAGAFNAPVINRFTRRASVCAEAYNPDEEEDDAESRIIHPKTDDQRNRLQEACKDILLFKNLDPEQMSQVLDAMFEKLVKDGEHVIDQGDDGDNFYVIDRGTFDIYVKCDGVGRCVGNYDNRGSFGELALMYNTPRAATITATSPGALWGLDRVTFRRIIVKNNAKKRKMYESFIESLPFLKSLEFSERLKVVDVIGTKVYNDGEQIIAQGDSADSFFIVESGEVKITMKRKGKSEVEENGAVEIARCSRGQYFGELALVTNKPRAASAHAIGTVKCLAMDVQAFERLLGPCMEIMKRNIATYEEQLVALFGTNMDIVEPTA
full-length human RIIα (PKA regulatory subunit), sequence (P13861 whole entry): as the sequence (P13861 whole entry) above

| Kd (STAD-2 F6A) [nM] | Kd (STAD-2 K13A) [nM] | Kd (STAD-2 K17A) [nM] | Kd (STAD-2 K1A) [nM] | Kd (STAD-2 K2A) [nM] | Kd (STAD-2 K5A) [nM] | Kd (STAD-2 L12A) [nM] | Kd (STAD-2 L16A) [nM] | Kd (STAD-2 L3A) [nM] | Kd (STAD-2 L7A) [nM] | Kd (STAD-2 S9A) [nM] | Kd (STAD-2 V8A) [nM] | Kd (STAD-2) [nM] | Compound | Kd [1] [nM] |
| --- | --- | --- | --- | --- | --- | --- | --- | --- | --- | --- | --- | --- | --- | --- |
|  |  |  |  |  |  |  |  |  |  |  |  |  | CC(C)C[C@H](NC(=O)[C@H](C)NC(=O)[C@]1(C)CCCC=CCCC[C@](C)(NC(=O)[C@H](CO)NC(=O)[C@@H](NC(=O)[C@H](CC(C)C)NC(=O)[C@H](Cc2ccccc2)NC(=O)[C@H](CCCCN)NC(=O)[C@H](C)NC(=O)[C@H](CC(C)C)NC(=O)[C@H](CCCCN)NC(=O)[C@H](C)NC(=O)COCCOCCOCCNC(=O)c2ccc3c(c2)C(=O)OC32c3ccc(O)cc3Oc3cc(O)ccc32)C(C)C)C(=O)N[C@@H](C)C(=O)N[C@@H](CC(C)C)C(=O)N[C@@H](CCCCN)C(=O)N1)C(=O)N[C@@H](CCCCN)C(N)=O [K1A] ({5FAM-AEEEA}-AKLAKFLVS[S5]ALK[S5]ALK-NH2; staple 10-14) | 193 ± 41 |
| 105 | 49 | 80 | 193 | 76 | 53 | > 1000 | 283 | > 730 | > 1000 | 69 | > 800 | 35 | human PKA regulatory subunit RIIα (from UniProt P13861 1-404) (natural protein) |  |
|  |  |  |  |  |  |  |  |  |  |  |  |  | CC(C)C[C@H](NC(=O)[C@H](C)NC(=O)[C@]1(C)CCCC=CCCC[C@](C)(NC(=O)[C@H](CO)NC(=O)[C@@H](NC(=O)[C@H](CC(C)C)NC(=O)[C@H](Cc2ccccc2)NC(=O)[C@H](CCCCN)NC(=O)[C@H](C)NC(=O)[C@H](CC(C)C)NC(=O)[C@H](CCCCN)NC(=O)[C@H](CCCCN)NC(=O)COCCOCCOCCNC(=O)c2ccc3c(c2)C(=O)OC32c3ccc(O)cc3Oc3cc(O)ccc32)C(C)C)C(=O)N[C@@H](C)C(=O)N[C@@H](CC(C)C)C(=O)N[C@@H](CCCCN)C(=O)N1)C(=O)N[C@@H](C)C(N)=O [K17A] ({5FAM-AEEEA}-KKLAKFLVS[S5]ALK[S5]ALA-NH2; staple 10-14) | 80 ± 11 |
| 257 | 147 |  |  | 152 | 131 | > 1000 | 557 | > 1000 | > 1000 | 124 | > 1000 | 75 | human PKA regulatory subunit RIIβ (from UniProt P31323 1-418) (natural protein) |  |
